Earlier results as cited in publication PMC6389717.

Experiments:
Asp38 = Asp38 (UniProt position 38, DATVEDPVGSE); assay: kinetics (per the article's general statement only; no method given for this value); conditions: presumed enzyme-substrate complex (general statement of the article); not given
Lys39 = Lys39 (UniProt position 39, IMAVVKANAYG); assay: kinetics; conditions: enzyme-substrate complex (alanine-bound active site, external aldimine)

| Substance | pKa (Asp38) | pKa (Lys39) |
| --- | --- | --- |
| Ketosteroid isomerase (3-oxo-Delta5-steroid isomerase) (not stated in the article (inferred: Comamonas testosteroni, formerly Pseudomonas testosteroni)) | 4.6 |  |
| Alanine racemase (not stated in the article (inferred: Geobacillus stearothermophilus, formerly Bacillus stearothermophilus)) |  | 7.4 |
